The values that follow come from patent publication US20260258117A1 (ACADEMISCH ZIEKENHUIS LEIDEN H O D N LUMC, published 2026).

Experiment [1] has as its target T1, Complement Factor H protein (human, UniProt P08603 19-1231).
T1 construct: Plasma protein, bought purified or present in normal human serum; also called FH; CFH
Put plainly: plate-bound complement activation assay: BSA-DNP coat, bsAb with normal human serum, FH detected. As for the experimental part:
BsAbs were functionally tested in plate-bound complement activation assays. To focus on the classical pathway, MaxiSorp plates were coated with 50 μL/well of a mixture of IgG (10 μg/mL, IVIg, Sanquin) or IgM (1 μg/mL, Merck, 401799) and BSA-DNP (10 μg/mL) or biotinylated BSA-DNP (10 μg/mL, biotinylated in-house) in coating buffer for 1 hour at 37° C. After every incubation, plates were washed three times with PBS/0.05% Tween 20. Plates were blocked with 100 μL/well PBS/1% BSA for 1 hour at 37° C. Samples containing 5 μg/mL (or a titration from 0.1 to 10 μg/mL) bsAbs, 10 μg/mL FH or C4BP, and 1% normal human serum (NHS) in RPMI were preincubated for 30 minutes at 4° C. After washing, plates were incubated with 50 μL/well samples for 1 hour at 37° C. Next, FH and C4BP were detected as described above for the bispecificity ELISA (using goat anti-human FH and HRP-labeled rabbit anti-goat Ig, or using rabbit anti-human C4BP and HRP-labeled goat anti-rabbit Ig), and C5b-9 was detected using mouse anti-human C5b-9 (Dako, M0777) and HRP-labeled goat anti-mouse Ig (Dako, P0447), all diluted in PTB buffer. Plates were developed by incubating with 50 μL/well ABTS containing 1:2000 diluted H₂O₂, and read at 415 nm using a microplate reader. […]

The next experiment addresses T2, C4b-binding protein (human, UniProt P04003 49-597; P20851 18-252).
T2 construct: also called C4BP
T2 sequence (looked up) 1: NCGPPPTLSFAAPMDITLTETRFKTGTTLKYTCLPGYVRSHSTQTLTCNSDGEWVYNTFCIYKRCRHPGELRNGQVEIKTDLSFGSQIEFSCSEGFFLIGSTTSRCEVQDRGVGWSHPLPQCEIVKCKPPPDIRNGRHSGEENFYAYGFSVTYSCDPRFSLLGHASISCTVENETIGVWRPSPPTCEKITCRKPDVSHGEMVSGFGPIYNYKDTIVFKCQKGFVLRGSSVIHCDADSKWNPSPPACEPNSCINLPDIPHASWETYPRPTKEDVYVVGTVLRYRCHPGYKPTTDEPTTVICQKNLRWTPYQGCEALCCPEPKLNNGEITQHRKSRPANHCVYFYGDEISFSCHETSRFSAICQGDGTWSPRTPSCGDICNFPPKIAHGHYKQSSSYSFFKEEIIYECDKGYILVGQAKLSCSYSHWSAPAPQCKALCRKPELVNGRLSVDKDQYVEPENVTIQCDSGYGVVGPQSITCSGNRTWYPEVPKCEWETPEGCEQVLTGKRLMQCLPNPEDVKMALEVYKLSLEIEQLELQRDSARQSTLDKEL
T2 sequence (looked up) 2: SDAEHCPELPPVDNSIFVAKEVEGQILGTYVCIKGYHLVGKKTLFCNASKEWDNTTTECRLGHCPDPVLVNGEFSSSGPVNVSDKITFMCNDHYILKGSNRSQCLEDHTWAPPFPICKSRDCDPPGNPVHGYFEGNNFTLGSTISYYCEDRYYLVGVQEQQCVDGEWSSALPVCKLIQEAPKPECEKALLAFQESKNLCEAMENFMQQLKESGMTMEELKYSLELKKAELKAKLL
Put plainly: plate-bound complement activation assay: BSA-DNP coat, bsAb with normal human serum, C4BP detected. As for the experimental part:
BsAbs were functionally tested in plate-bound complement activation assays. To focus on the classical pathway, MaxiSorp plates were coated with 50 μL/well of a mixture of IgG (10 μg/mL, IVIg, Sanquin) or IgM (1 μg/mL, Merck, 401799) and BSA-DNP (10 μg/mL) or biotinylated BSA-DNP (10 μg/mL, biotinylated in-house) in coating buffer for 1 hour at 37° C. After every incubation, plates were washed three times with PBS/0.05% Tween 20. Plates were blocked with 100 μL/well PBS/1% BSA for 1 hour at 37° C. Samples containing 5 μg/mL (or a titration from 0.1 to 10 μg/mL) bsAbs, 10 μg/mL FH or C4BP, and 1% normal human serum (NHS) in RPMI were preincubated for 30 minutes at 4° C. After washing, plates were incubated with 50 μL/well samples for 1 hour at 37° C. Next, FH and C4BP were detected as described above for the bispecificity ELISA (using goat anti-human FH and HRP-labeled rabbit anti-goat Ig, or using rabbit anti-human C4BP and HRP-labeled goat anti-rabbit Ig), and C5b-9 was detected using mouse anti-human C5b-9 (Dako, M0777) and HRP-labeled goat anti-mouse Ig (Dako, P0447), all diluted in PTB buffer. Plates were developed by incubating with 50 μL/well ABTS containing 1:2000 diluted H₂O₂, and read at 415 nm using a microplate reader.

T1 sequence (P08603 19-1231 limits assumed): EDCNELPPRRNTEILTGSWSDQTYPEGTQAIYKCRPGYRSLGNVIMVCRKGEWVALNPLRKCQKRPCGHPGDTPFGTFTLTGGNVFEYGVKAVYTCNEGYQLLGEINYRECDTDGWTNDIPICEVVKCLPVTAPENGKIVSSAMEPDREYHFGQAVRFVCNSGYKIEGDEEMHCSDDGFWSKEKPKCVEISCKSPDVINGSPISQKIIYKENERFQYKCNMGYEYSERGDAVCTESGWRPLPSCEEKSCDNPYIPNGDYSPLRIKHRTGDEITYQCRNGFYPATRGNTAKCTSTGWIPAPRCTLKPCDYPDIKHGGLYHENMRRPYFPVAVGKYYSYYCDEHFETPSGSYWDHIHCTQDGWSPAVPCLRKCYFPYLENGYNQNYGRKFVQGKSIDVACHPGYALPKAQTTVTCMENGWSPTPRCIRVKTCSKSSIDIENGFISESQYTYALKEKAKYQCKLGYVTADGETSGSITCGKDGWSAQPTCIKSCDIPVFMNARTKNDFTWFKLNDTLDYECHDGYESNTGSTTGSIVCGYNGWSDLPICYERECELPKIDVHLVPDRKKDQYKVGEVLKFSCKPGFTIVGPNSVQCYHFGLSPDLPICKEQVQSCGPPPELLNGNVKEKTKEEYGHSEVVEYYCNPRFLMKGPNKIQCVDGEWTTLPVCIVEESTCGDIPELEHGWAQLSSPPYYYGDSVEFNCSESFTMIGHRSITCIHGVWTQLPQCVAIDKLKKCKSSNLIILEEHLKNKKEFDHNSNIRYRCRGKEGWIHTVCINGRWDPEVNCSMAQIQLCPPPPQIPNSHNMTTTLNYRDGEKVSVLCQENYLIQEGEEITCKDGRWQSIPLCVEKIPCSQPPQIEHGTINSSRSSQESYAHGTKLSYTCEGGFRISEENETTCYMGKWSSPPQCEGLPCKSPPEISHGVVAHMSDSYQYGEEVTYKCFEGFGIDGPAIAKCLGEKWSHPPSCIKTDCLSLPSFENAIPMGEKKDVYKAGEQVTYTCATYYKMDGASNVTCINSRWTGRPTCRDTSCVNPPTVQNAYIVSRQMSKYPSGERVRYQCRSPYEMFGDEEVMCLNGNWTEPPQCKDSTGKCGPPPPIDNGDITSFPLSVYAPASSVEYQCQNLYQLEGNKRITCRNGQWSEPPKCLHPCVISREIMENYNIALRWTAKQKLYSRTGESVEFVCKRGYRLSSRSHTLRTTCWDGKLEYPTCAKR

B1: Anti-HIV F405L LALAPG, Anti-DNP K409R LALAPG (bispecific antibody, human IgG1, kappa, L234A L235A)
heavy 1: QVQLVQSGAEVKKPGASVKVSCQASGYRFSNFVIHWVRQAPGQRFEWMGWINPYNGNKEFSAKFQDRVTFTADTSANTAYMELRSLRSADTAVYYCARVGPYSWDDSPQDNYYMDVWGKGTTVIVSSASTKGPSVFPLAPSSKSTSGGTAALGCLVKDYFPEPVTVSWNSGALTSGVHTFPAVLQSSGLYSLSSVVTVPSSSLGTQTYICNVNHKPSNTKVDKRVEPKSCDKTHTCPPCPAPEAAGGPSVFLFPPKPKDTLMISRTPEVTCVVVDVSHEDPEVKFNWYVDGVEVHNAKTKPREEQYNSTYRVVSVLTVLHQDWLNGKEYKCKVSNKALGAPIEKTISKAKGQPREPQVYTLPPSREEMTKNQVSLTCLVKGFYPSDIAVEWESNGQPENNYKTTPPVLDSDGSFLLYSKLTVDKSRWQQGNVFSCSVMHEALHNHYTQKSLSLSPGK
light 1: EIVLTQSPGTLSLSPGERATFSCRSSHSIRSRRVAWYQHKPGQAPRLVIHGVSNRASGISDRFSGSGSGTDFTLTITRVEPEDFALYYCQVYGASSYTFGQGTKLERKRTVAAPSVFIFPPSDEQLKSGTASVVCLLNNFYPREAKVQWKVDNALQSGNSQESVTEQDSKDSTYSLSSTLTLSKADYEKHKVYACEVTHQGLSSPVTKSFNRGEC
heavy 2: DVRLQESGPGLVKPSQSLSLTCSVTGYSITNSYYWNWIRQFPGNKLEWMVYIGYDGSNNYNPSLKNRISITRDTSKNQFFLKLNSVTTEDTATYYCARATYYGNYRGFAYWGQGTLVTVSAASTKGPSVFPLAPSSKSTSGGTAALGCLVKDYFPEPVTVSWNSGALTSGVHTFPAVLQSSGLYSLSSVVTVPSSSLGTQTYICNVNHKPSNTKVDKRVEPKSCDKTHTCPPCPAPEAAGGPSVFLFPPKPKDTLMISRTPEVTCVVVDVSHEDPEVKFNWYVDGVEVHNAKTKPREEQYNSTYRVVSVLTVLHQDWLNGKEYKCKVSNKALGAPIEKTISKAKGQPREPQVYTLPPSREEMTKNQVSLTCLVKGFYPSDIAVEWESNGQPENNYKTTPPVLDSDGSFFLYSRLTVDKSRWQQGNVFSCSVMHEALHNHYTQKSLSLSPGK
light 2: DIRMTQTTSSLSASLGDRVTISCRASQDISNYLNWYQQKPDGTVKLLIYYTSRLHSGVPSRFSGSGSGTDYSLTISNLEQEDIATYFCQQGNTLPWTFGGGTKLEIKRTVAAPSVFIFPPSDEQLKSGTASVVCLLNNFYPREAKVQWKVDNALQSGNSQESVTEQDSKDSTYSLSSTLTLSKADYEKHKVYACEVTHQGLSSPVTKSFNRGEC
notes: also called anti-HIV x anti-DNP
With B1, the binding result (in experiment [1]; with C4b-binding protein) was “no binding” in each case.
